Measured values: US9408922B2, “Anti-tofacitinib antibodies and uses thereof for drug monitoring” (Pfizer Inc., priority 2012, dated 2016)
Values belong to the molecule of their own block, whether it stands above or below them.

Columns and labels:
Assay type in all cases: binding
[1] = Competitive immunoassay-3 with Metabolite 1 as competitor (Example 7); conditions: for 4-P Fit parameter C, Concentration vs % B/B0: Metabolite 1 as competitor, biotinylated tofacitinib 1 ng/ml; for cross reactivity to metabolite 1 (in words, FIG. 3): competitive immunoassay
Description: (§1) After washing the plates, 200 μl of streptavidin-HRP (50 ng/ml) was added and the plates were then incubated for 0.5-1 hour at room temperature. After washing the plates again, 200 μl of TMB (3,3′,5,5′-Tetramethylbenzidine) substrate was added, then color developed for 30 minutes, and the reaction was stopped by adding 50 μl 2 N sulfuric acid. Absorbance at 450 nm was measured.
For this example, eleven anti-tofacitinib monoclonal antibodies were screened for cross reactivity with metabolite 1 using competitive immunoassay. […] After washing the plates, 200 μl of streptavidin-HRP (50 ng/ml) was added and then incubated for 0.5-1 hour at room temperature. After washing the plates again, 200 μl of TMB substrate was added, then developed for 30 minutes, and stopped by adding 50 μl 2 N sulfuric acid. Absorbance at 450 nm was measured.

[2] = Antigen ED50 in cross reactivity experiment (Example 9); conditions: antibody at EC50 dilution; biotinylated tofacitinib 1 ng/mL
Description: (§2) Two clones, 6D9.A8 and 12D4.G6, were tested for cross reactivity to metabolites 1 and 2. In this experiment, the metabolites were prepared at concentrations of 200,000 to 200 ng/ml and the antibody clones were prepared at their EC50 dilutions shown in Table 1.

[3] = Tofacitinib dose response curves with antibody clones (Example 12); conditions: for Antigen ED50: Table 10; for Tofacitinib ED50: tofacitinib 0.001 to 1000 ng/ml, antibody dilution 1:25,600 (6D9.A5), 1:4,000 (6D9.A8), 1:22,000 (12D4.G6); for 4-P Fit parameter C, Concentration vs % B/B0: tofacitinib standard curve
From the text: Further, the data used to generate the graph shown in FIG. 5 are set forth below in Table 9.

[4] = Cross reactivity to Metabolite 2, competitive immunoassay-3 or direct ELISA (Example 12); conditions: for Metabolite 2 Cross reactivity: Table 10
Description: as §1

[5] = Cross reactivity to Metabolite 1, competitive immunoassay-3 or direct ELISA (Example 12); conditions: for Metabolite 1 Cross reactivity: Table 10
Description: as §1

[6] = Cross reactivity competitive ELISA with Metabolite 1 (Example 9); conditions: metabolite 200,000 to 200 ng/ml; antibody at EC50 dilution
Description: as §2

[7] = Antigen competition immunoassay, unlabeled tofacitinib vs biotinylated tofacitinib (Example 8)
Description: as §1, with “and” for “and the plates were”, “TMB” for “TMB (3,3′,5,5′-Tetramethylbenzidine)”, “then” for “then color”, “and” for “and the reaction was”, “2N” for “2 N”

[8] = Standard curve with tofacitinib, ELISA (Example 10); conditions: biotinylated tofacitinib 1 ng/ml
From the text: FIG. 4 is a graph depicting optimal dilution ranges of select monoclonal antibodies of the invention, e.g., 6D9.A8 (open circles) and 12D4.G6 (open squares) as determined by ELISA.

[9] = Cross reactivity competitive ELISA with Metabolite 2 (Example 9); conditions: metabolite 200,000 to 200 ng/ml; antibody at EC50 dilution
Description: as §2

[10] = unlabeled tofacitinib 1000 to 0.001 ng/ml, antibody at EC50 dilution

binding of metabolite 2 (in words) [4]: did not substantially bind | binding of metabolite 1 (in words) [5]: did not substantially bind | competition by unlabeled tofacitinib for binding to biotinylated tofacitinib (in words) [7]: competition was seen
B1: 12D4.G6: mouse monoclonal anti-tofacitinib antibody; VH SEQ ID NO:12, VL SEQ ID NO:4 (antibody, listed as Mus musculus, V domains shown)
VH: QVQLKESGPGLVAPSQSLSITCTVSGFSLSIYSVHWVRQPPGKGLEWLGMIWGGGNTDYNSVLKSRLSISKDNSKSQVFLKVNSLQTDDTAMYYCARIYYGIFWGQGTLVTVSA
VL: NIVMTQSPKSMSMSVGERVTLTCKASENVVTYVSWYQQKPEQSPKLLIYGASNRYTGVPDRFTGSGSATDFTLTISSVQAEDLADYHCGQGYSYPYTFGGGTKLEIKR
4-P Fit parameter C, Concentration vs % B/B0 [1]: 2.14 × 10^7 | cross reactivity to metabolite 1 (in words, FIG. 3) [1]: did not detectably bind metabolite 1 | Antigen ED50 [2]: 0.152 µg/mL | Antigen ED50 [3]: 118 ng/mL | Tofacitinib ED50 [3]: 0.118 µg/mL | 4-P Fit parameter C, Concentration vs % B/B0 [3]: 108 | Metabolite 2 Cross reactivity [4]: 0.15% | Metabolite 1 Cross reactivity [5]: 4.17% | Metabolite-1 Cross reactivity [6]: 4.17% | ED20 [7, 10]: 0.457 µg/mL | ED50 [7, 10]: 0.104 µg/mL | ED80 [7, 10]: 0.024 µg/mL | 4-P Fit parameter C [8]: 109 | Metabolite-2 Cross reactivity [9]: 0.15%

binding of the parent drug, potency compared with antibody 12D4.G6 (in words) [3]: more potent binders of the parent drug | binding of metabolite 2 (in words) [4]: did not substantially bind | binding of metabolite 1 (in words) [5]: did not substantially bind
B2: 6D9.A5: mouse monoclonal anti-tofacitinib antibody; VH SEQ ID NO:7, VL SEQ ID NO:4; replacement subclone for 6D9.A8 (antibody, listed as Mus musculus, V domains shown)
VH: QVQLKESGPGLVAPSESLTITCTVSGFSLSRYSIHWVRQPPGKGLEWLGMIWGGGSTDYNSVLKSRLTIRKDYSKSQVFLKMNSLQTDDTAMYYCARIYYGIYWGQGTLVTVSA
VL: NIVMTQSPKSMSMSVGERVTLTCKASENVVTYVSWYQQKPEQSPKLLIYGASNRYTGVPDRFTGSGSATDFTLTISSVQAEDLADYHCGQGYSYPYTFGGGTKLEIKR
notes: mouse monoclonal anti-tofacitinib antibody; replacement subclone for 6D9.A8
cross reactivity to metabolite 1 (in words, FIG. 3) [1]: did not detectably bind metabolite 1 | Antigen ED50 [3]: 244 ng/ml ng/mL | Tofacitinib ED50 [3]: 0.244 µg/mL | 4-P Fit parameter C, Concentration vs % B/B0 [3]: 224 | Metabolite 2 Cross reactivity [4]: <0.01% | Metabolite 1 Cross reactivity [5]: 4.47%

B3: 12H4.G2: mouse monoclonal anti-tofacitinib antibody; VH SEQ ID NO:8, VL SEQ ID NO:9 (antibody, listed as Mus musculus, V domains shown)
VH: DVQLQGSGPDLVKPSQSLSLTCTVTGYSITSGYSWNWIRQFPGNTLEWMGFIHYSGSTNYNPSLKSRISITRDTSKNQFFLQLNSVTTEDTATYYCVRGPYGSSFYWGQGTTLTVSS
VL: QAVVTQESALTTSPGETVTLTCRSSTGAVTTSNYATWVQEKPDHLFTGLIGGTNNRAPGVPARFSGSLIGDKAALTLTGAQTEDEAIYFCALWYSNHWVFGGGTKLTVL
4-P Fit parameter C, Concentration vs % B/B0 [1]: 0.383 | cross reactivity to metabolite 1 (in words, FIG. 3) [1]: did not detectably bind metabolite 1

B4: 10F10.H5: mouse monoclonal anti-tofacitinib antibody; VH SEQ ID NO:5, VL SEQ ID NO:6 (antibody, listed as Mus musculus, V domains shown)
VH: DVQLQESGPDLVKPSQSLSLTCTVTGYSITSGYSWNWIRQFPGNTLEWMGYIHYSGTTNYNPSLKSRISITRDTSKNQFFLQLNSVTAEDTATYYCARGPYGSSFYWGQGTTLAVSS
VL: QIVLTQSPAIMSASPGEKVTVTCSASSSVSSMHWFQQKPGTSPKLWIYSTSNLASGVPTRFSGSGSGTSYSLTISRMEAEDVATYYCQQRNNYPYTFGGGTKLEIKR
4-P Fit parameter C, Concentration vs % B/B0 [1]: 0.345 | cross reactivity to metabolite 1 (in words, FIG. 3) [1]: did not detectably bind metabolite 1

B5: 5A3.E5: mouse monoclonal anti-tofacitinib antibody; VH SEQ ID NO:1, VL SEQ ID NO:2 (antibody, listed as Mus musculus, V domains shown)
VH: EVKLVESGGGLVQPGGSLRLSCATSGFTFNDYYMTWVRQPPGKALEWLGFIRNKADGYTPYYSPSVKGRFTISRDNSQSILYLQMNTLRTEDSATYYCARPHYYGFPFGYWGQGTLVTVSA
VL: QAVVTQESALTTSPGETVTLTCRSSTGAVTTNNYANWVQEKPDHLFTGLIGGTNSRAPGVPARFSGSLIGDKAALTITGAQTEDEAMYFCALWYSNHWVFGGGTKLTVL
4-P Fit parameter C, Concentration vs % B/B0 [1]: 0.191 | cross reactivity to metabolite 1 (in words, FIG. 3) [1]: did not detectably bind metabolite 1

B6: 10A6.C5: mouse monoclonal anti-tofacitinib antibody; VH SEQ ID NO:3, VL SEQ ID NO:4 (antibody, listed as Mus musculus, V domains shown)
VH: DVQLQESGPDLVKPSQSLSLTCTVTGYSITSGYSWNWIRQFPGNTLEWMGYIHYSGSTNYNPSLKSRISITRDTSKNQFFLQLNSVTTEDTATYYCVRGPYGSSFYWGQGTTLTVSS
VL: NIVMTQSPKSMSMSVGERVTLTCKASENVVTYVSWYQQKPEQSPKLLIYGASNRYTGVPDRFTGSGSATDFTLTISSVQAEDLADYHCGQGYSYPYTFGGGTKLEIKR
4-P Fit parameter C, Concentration vs % B/B0 [1]: 0.389 | cross reactivity to metabolite 1 (in words, FIG. 3) [1]: did not detectably bind metabolite 1

B7: 16F10.E6: mouse monoclonal anti-tofacitinib antibody; VH SEQ ID NO:10, VL SEQ ID NO:11 (antibody, listed as Mus musculus, V domains shown)
VH: DMQLQESGPDLVKPSQSLSLTCTVTGYSITSGYSWNWIRQFPGNTLEWMGYIHYSGNTVYNPSLKSRLSITRDTSKNQFFLQLNSVTTEDTATYYCVRGPYGSSFYWGQGTTLTVSS
VL: DIVMTQSQKFMSTSVGDRVSVTCKASQNVGTNVAWYQQKPGQSPKALIYSASYRYSGVPDRFTGSGSGTDFTLTISNVQSEDLAEYFCQQYYNYPLTFGAGTKLELKR
cross reactivity to metabolite 1 (in words, FIG. 3) [1]: did not detectably bind metabolite 1
